Experimental data as given in article PMC13218723, “A novel RAB5 binding site in human VPS34-CII that is likely the primordial site in eukaryotic evolution” (eLife, 2026).
Values joined by “and” are separate entries in the source; they are usually repeats but may differ in a detail not shown here. Equal entries are not always repeated.

What was measured:
[1] = target: mCherry-tagged yeast VPS34-CII (ScVPS34-CII), wild type (S. cerevisiae, UniProt P22543 1-875; P22219 1-1454; Q02948 1-557; Q05919 1-439)
[2] = target: T1, mCherry-tagged yeast VPS34-CII (ScVPS34-CII), wild type (S. cerevisiae, UniProt P22543 1-875; P22219 1-1454; Q02948 1-557; Q05919 1-439); experiment: confocal microscopy bead-based binding assay; RFP-trap beads coated with mCherry-tagged yeast VPS34-CII; Vps21 Q66L-EGFP added at increasing concentrations; settings: both partners purified
T1 construct: S. cerevisiae Vps34; S. cerevisiae Vps15; S. cerevisiae Vps30, named as a common subunit of the yeast complexes; S. cerevisiae Vps38, named as the unique subunit of yeast complex II; also called WT ScVPS34-CII; yeast complex II; source: S. cerevisiae YOY193, galactose-induced; purified (IgG beads, TEV cleavage, Superdex 200); copies: + + +

[3] = target: mCherry-tagged human VPS34-CII with VPS34 199-REIE-202>199-AAAA-202 (human, UniProt Q8NEB9 1-887; Q99570 1-1358; Q14457 1-450; Q9P2Y5 1-699, 199-REIE-202>199-AAAA-202)
[4] = target: T2, mCherry-tagged human VPS34-CII with VPS34 199-REIE-202>199-AAAA-202 (human, UniProt Q8NEB9 1-887; Q99570 1-1358; Q14457 1-450; Q9P2Y5 1-699, 199-REIE-202>199-AAAA-202); experiment: confocal microscopy bead-based binding assay; RFP-trap agarose beads coated with 2 µM mCherry-tagged VPS34 complex (or mCherry alone); AF488-labelled RAB protein added at varying concentrations; 20 mM HEPES pH 8.0, 100 mM NaCl, 0.5 mM TCEP; 30 min on ice; AF488 normalised by mCherry intensity; fit 'One site - specific binding'; settings: both partners purified
T2 construct: human VPS34, full length, untagged, REIE to AAAA in C2 HH helix 2; human VPS15, full length, with C-terminal 3xTEV-ZZ removed by TEV; human BECLIN1, full length; human UVRAG, full length, untagged; also called VPS34-CII REIE >AAAA; source: Expi293 cells, transfected; purified (IgG beads, TEV cleavage, S200 gel filtration); not shown: ZZ (protein A), C-terminal, cleaved; mCherry, N-terminal, kept; …

[5] = target: T3, mCherry-tagged human VPS34-CII with VPS34 199-REIE-202>199-ERIR-202 (human, UniProt Q8NEB9 1-887; Q99570 1-1358; Q14457 1-450; Q9P2Y5 1-699, R199E | E200R | E202R); experiment: as above; settings: both partners purified
T3 construct: human VPS34, full length, untagged, R199E E200R E202R; human VPS15, full length, with C-terminal 3xTEV-ZZ removed by TEV; human BECLIN1, full length; human UVRAG, full length, untagged; also called VPS34-CII REIE >ERIR; reverse charge mutant; source: Expi293 cells, transfected; purified (IgG beads, TEV cleavage, S200 gel filtration); not shown: ZZ (protein A), C-terminal, cleaved; mCherry, …

[6] = target: T4, mCherry-tagged human VPS34 complex II (VPS34-CII), wild type (human, UniProt Q8NEB9 1-887; Q99570 1-1358; Q14457 1-450; Q9P2Y5 1-699); experiment: as above; settings: both partners purified
T4 construct: human VPS34 (class III PI3K), full length, untagged; human VPS15, full length, with C-terminal 3xTEV-ZZ removed by TEV; human BECLIN1, full length; human UVRAG, full length, untagged; Held on RFP-trap beads by the mCherry on BECLIN1; also called mCherry-VPS34-CII; WT VPS34-CII; source: Expi293 cells, transfected; purified (IgG beads, TEV cleavage, S200 gel filtration); not shown: ZZ (protein A), …

[7] = target: T5, mCherry-tagged human VPS34-CII with VPS15 579-SHMIT-583>579-DDMIE-583 (human, UniProt Q8NEB9 1-887; Q99570 1-1358; Q14457 1-450; Q9P2Y5 1-699, S579D | H580D | T583E); experiment: as above; settings: both partners purified
T5 construct: human VPS34, wild type; human VPS15, full length, S579D H580D T583E, with C-terminal 3xTEV-ZZ removed by TEV; human BECLIN1, full length; human UVRAG, full length, untagged; also called VPS34-CII VPS15 mutant; VPS15 mut; source: Expi293 cells, transfected; purified (IgG beads, TEV cleavage, S200 gel filtration); not shown: ZZ (protein A), C-terminal, cleaved; mCherry, N-terminal, kept; copies: + …

[8] = target: human VPS34-CII with VPS34 199-REIE-202>199-ERIR-202, untagged (human, UniProt Q8NEB9 1-887; Q99570 1-1358; Q14457 1-450; Q9P2Y5 1-699, R199E | E200R | E202R); experiment: cell-based or functional assay
[9] = target: T5, mCherry-tagged human VPS34-CII with …; experiment: cell-based or functional assay
[10] = target: T6, mCherry-tagged human VPS34 complex II with VPS34 199-REIE-202>AAAA (human, UniProt Q8NEB9 1-887; Q99570 1-1358; Q14457 1-450; Q9P2Y5 1-699, 199-REIE-202>199-AAAA-202); experiment: confocal microscopy bead-based binding assay; mCherry-tagged VPS34 complex (2 µM) held on RFP-trap agarose beads, AF488-labelled RAB5A added at varying concentrations; 20 mM HEPES pH 8.0, 100 mM NaCl, 0.5 mM TCEP; 30 min on ice; AF488 intensity normalised by mCherry intensity; GraphPad Prism fit 'One site - specific binding'; fit of the representative experiment; settings: both partners purified
T6 construct: VPS34 (PIK3C3), human, full length, untagged, 199-REIE-202 changed to AAAA; VPS15, human, full length; BECLIN1, human, full length; UVRAG, human, full length, untagged; also called VPS34-CII REIE >AAAA; CII-AAAA; source: Expi293 cells, transfected, purified (IgG beads, TEV cleavage, gel filtration); not shown: ZZ, C-terminal, cleaved; mCherry, N-terminal, kept; copies: + + +
T6 sequence (Q8NEB9 other isoform, or with tags, fused parts or gaps 199-REIE-202>199-AAAA-202 | 199-REIE-202>199-AAAA-202, chain 1 of 4): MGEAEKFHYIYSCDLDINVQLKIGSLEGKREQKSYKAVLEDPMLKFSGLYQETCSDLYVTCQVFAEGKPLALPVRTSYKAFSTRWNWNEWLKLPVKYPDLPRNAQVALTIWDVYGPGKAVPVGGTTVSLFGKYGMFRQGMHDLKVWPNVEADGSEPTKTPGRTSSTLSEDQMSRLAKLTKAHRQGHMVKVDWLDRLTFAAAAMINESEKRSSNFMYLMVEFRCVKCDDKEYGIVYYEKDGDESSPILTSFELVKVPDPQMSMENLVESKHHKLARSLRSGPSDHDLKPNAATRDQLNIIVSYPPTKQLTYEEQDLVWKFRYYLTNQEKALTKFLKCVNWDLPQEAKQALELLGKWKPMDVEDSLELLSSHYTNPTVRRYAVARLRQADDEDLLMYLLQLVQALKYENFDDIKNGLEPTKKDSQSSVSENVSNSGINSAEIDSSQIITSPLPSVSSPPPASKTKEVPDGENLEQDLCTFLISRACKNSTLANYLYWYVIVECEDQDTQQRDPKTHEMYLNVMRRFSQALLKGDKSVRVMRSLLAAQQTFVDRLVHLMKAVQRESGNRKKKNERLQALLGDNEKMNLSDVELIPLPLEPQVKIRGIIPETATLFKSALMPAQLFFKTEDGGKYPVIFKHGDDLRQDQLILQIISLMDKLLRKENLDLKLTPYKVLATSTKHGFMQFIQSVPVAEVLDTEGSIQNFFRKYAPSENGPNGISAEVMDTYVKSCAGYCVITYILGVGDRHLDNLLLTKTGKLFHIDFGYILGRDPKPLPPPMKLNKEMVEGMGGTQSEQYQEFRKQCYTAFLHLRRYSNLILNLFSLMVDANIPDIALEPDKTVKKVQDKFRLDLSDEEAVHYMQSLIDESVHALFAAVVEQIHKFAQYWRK
T6 sequence (Q99570 whole entry, change not shown, chain 2 of 4): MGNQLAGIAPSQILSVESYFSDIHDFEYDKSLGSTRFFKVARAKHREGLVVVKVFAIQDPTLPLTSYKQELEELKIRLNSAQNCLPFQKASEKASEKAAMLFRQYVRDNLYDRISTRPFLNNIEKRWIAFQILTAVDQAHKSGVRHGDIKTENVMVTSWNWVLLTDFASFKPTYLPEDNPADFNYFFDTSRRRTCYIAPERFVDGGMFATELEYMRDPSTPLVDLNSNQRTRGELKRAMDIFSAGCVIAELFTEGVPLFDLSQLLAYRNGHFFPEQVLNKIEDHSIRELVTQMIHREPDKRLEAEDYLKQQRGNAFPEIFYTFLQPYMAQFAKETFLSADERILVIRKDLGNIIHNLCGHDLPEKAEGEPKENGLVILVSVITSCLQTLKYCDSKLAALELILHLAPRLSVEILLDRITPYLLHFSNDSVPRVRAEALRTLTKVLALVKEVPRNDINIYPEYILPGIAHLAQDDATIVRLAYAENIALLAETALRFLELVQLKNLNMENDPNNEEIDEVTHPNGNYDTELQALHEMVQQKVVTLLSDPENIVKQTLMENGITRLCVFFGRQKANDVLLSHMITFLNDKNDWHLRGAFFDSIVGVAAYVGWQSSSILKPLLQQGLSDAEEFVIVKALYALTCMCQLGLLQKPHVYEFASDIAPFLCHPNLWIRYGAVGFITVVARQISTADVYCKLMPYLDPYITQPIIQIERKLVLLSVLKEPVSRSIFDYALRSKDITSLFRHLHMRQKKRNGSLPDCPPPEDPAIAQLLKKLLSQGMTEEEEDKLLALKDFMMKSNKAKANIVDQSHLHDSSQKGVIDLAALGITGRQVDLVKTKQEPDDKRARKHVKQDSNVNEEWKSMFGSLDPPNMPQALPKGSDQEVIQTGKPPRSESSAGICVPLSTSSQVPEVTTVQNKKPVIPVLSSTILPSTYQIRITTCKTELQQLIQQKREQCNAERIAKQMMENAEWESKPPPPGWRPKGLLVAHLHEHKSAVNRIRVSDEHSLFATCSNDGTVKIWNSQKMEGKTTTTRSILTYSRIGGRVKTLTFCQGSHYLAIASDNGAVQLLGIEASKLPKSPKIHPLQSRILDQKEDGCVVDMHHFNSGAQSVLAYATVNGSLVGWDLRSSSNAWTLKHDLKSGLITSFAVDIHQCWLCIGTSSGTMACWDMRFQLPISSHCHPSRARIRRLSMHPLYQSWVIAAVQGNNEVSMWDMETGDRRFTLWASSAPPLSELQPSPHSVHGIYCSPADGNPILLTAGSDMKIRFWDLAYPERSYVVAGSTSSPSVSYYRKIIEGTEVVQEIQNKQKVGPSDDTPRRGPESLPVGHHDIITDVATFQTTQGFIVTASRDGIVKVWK
T6 sequence (Q14457 whole entry, change not shown, chain 3 of 4): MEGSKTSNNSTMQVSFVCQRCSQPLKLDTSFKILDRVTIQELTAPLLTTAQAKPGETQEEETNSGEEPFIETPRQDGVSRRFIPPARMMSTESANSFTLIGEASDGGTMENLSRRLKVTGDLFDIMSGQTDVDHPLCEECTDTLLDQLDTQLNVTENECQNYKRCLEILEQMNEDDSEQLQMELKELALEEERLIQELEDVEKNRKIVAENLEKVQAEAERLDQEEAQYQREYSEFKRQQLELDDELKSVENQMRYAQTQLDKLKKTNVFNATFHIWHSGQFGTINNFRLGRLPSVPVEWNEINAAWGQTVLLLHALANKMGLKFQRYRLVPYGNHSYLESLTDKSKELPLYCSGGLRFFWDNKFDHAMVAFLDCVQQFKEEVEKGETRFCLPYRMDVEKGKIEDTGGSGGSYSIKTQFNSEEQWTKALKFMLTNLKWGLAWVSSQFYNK
T6 sequence (Q9P2Y5 whole entry, change not shown, chain 4 of 4): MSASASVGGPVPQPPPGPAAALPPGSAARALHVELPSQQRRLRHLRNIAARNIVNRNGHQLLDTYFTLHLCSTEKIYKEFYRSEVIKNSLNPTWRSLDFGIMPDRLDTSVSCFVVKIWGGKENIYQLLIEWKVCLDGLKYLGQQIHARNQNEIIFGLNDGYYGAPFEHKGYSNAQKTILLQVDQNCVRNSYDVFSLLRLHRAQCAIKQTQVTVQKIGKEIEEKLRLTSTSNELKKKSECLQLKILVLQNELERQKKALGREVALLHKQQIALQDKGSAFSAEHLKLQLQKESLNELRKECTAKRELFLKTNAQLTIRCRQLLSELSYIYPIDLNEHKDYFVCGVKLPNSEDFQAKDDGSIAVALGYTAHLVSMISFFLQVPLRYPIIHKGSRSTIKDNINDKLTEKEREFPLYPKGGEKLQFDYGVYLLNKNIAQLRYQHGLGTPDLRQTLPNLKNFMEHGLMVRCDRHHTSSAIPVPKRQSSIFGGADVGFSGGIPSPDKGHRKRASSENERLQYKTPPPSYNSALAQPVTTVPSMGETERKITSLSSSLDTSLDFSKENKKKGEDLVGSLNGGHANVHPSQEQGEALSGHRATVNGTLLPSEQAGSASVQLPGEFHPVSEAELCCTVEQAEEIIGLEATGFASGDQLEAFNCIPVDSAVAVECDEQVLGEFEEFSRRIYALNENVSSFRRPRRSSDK

[11] = target: T7, mCherry-tagged human VPS34 complex II with VPS15 579-SHMIT-583>DDMIE (human, UniProt Q8NEB9 1-887; Q99570 1-1358; Q14457 1-450; Q9P2Y5 1-699, S579D | H580D | T583E); experiment: as above; settings: both partners purified
T7 construct: VPS34 (PIK3C3), human, wild type; BECLIN1, human, full length; UVRAG, human, full length, untagged; also called VPS34-CII VPS15 mutant; CII-DDMIE; source: Expi293 cells, transfected, purified (IgG beads, TEV cleavage, gel filtration); not shown: ZZ, C-terminal, cleaved; mCherry, N-terminal, kept; copies: + + +

[12] = target: T8, mCherry-tagged human VPS34 complex II, wild type (VPS34, VPS15, mCherry-BECLIN1, UVRAG) (human, UniProt Q8NEB9 1-887; Q99570 1-1358; Q14457 1-450; Q9P2Y5 1-699); experiment: as above; settings: both partners purified
T8 construct: VPS34 (PIK3C3), human, full length, untagged; VPS15, human, full length; BECLIN1, human, full length; UVRAG, human, full length, untagged; Held on RFP-trap beads by the mCherry on BECLIN1; also called VPS34-CII; WT VPS34-CII; source: Expi293 cells, transfected, purified (IgG beads, TEV cleavage, gel filtration); not shown: ZZ, C-terminal, cleaved; mCherry, N-terminal, kept; copies: + + +

[13] = target: T9, mCherry-tagged human VPS34 complex II with VPS34 199-REIE-202>ERIR (human, UniProt Q8NEB9 1-887; Q99570 1-1358; Q14457 1-450; Q9P2Y5 1-699, R199E | E200R | E202R); experiment: as above; settings: both partners purified
T9 construct: VPS34 (PIK3C3), human, full length, untagged, R199E E200R E202R (199-REIE-202 to ERIR); VPS15, human, full length; BECLIN1, human, full length; UVRAG, human, full length, untagged; also called VPS34-CII REIE >ERIR; CII-ERIR; source: Expi293 cells, transfected, purified (IgG beads, TEV cleavage, gel filtration); not shown: ZZ, C-terminal, cleaved; mCherry, N-terminal, kept; copies: + + +

B1: S. cerevisiae Vps21 Q66L, 1-207, EGFP fusion (natural protein, UniProt P36017 1-207, looked up)
chain: MNTSVTSIKLVLLGEAAVGKSSIVLRFVSNDFAENKEPTIGAAFLTQRVTINEHTVKFEIWDTAGLERFASLAPMYYRNAQAALVVYDVTKPQSFIKARHWVKELHEQASKDIIIALVGNKIDMLQEGGERKVAREEGEKLAEEKGLLFFETSAKTGENVNDVFLGIGEKIPLKTAEEQNSASNERESNNQRVDLNAANDGTSANSA
notes: S. cerevisiae Vps21 residues 1-207, Q66L (GTP-locked); Backbone pOPTH; also called Vps21 Q66L-EGFP; yeast RAB5 orthologue; source: E. coli OverExpress C41(DE3), purified (Ni-NTA, Q column, S75 gel filtration), GTP-loaded; not shown: EGFP, C-terminal, kept
[1]
  Kd: 6 µM
[2]
  binding result: binds

B2: AF488-labelled human RAB5A Q79L C19S C63S, 1-212 (natural protein, UniProt P20339 1-212, looked up)
chain: MASRGATRPNGPNTGNKISQFKLVLLGESAVGKSSLVLRFVKGQFHEFQESTIGAAFLTQTVSLDDTTVKFEIWDTAGLERYHSLAPMYYRGAQAAIVVYDITNEESFARAKNWVKELQRQASPNIVIALSGNKADLANKRAVDFQEAQSYADDNSLLFMETSAKTSMNVNEIFMAIAKKLPKNEPQNPGANSARGRGVDLTEPTQPTRNQC
modifications: AlexaFluor 488 C5 maleimide label (43% labelling efficiency)
notes: human RAB5A residues 1-212, Q79L C19S C63S; The methods say that RAB5A was loaded with GTP or GDP; also called RAB5A-AF488; RAB5-AF488
[3]
  Kd: 2.6 µM
[4]
  fold tighter binding than the WT complex: ~3 fold
[5]
  Kd: 27 µM
[6]
  Kd: 7.4 µM
[7]
  Kd: 6 µM

B3: human RAB5A-GTP 1-212 (C19S, C63S, Q79L), unlabelled (natural protein, UniProt P20339 1-212, looked up)
chain: MASRGATRPNGPNTGNKISQFKLVLLGESAVGKSSLVLRFVKGQFHEFQESTIGAAFLTQTVSLDDTTVKFEIWDTAGLERYHSLAPMYYRGAQAAIVVYDITNEESFARAKNWVKELQRQASPNIVIALSGNKADLANKRAVDFQEAQSYADDNSLLFMETSAKTSMNVNEIFMAIAKKLPKNEPQNPGANSARGRGVDLTEPTQPTRNQC
[8]
  GUV-based kinase assay: activation of VPS34-CII by membrane-tethered RAB5A (initial rates, AF647-PX signal): 2 fold
[9]
  GUV-based kinase assay: activation of VPS34-CII by membrane-tethered RAB5A (initial rates, AF647-PX signal): ~2 fold

B4: HsRAB5A Q79L C19S,C63S, 1-212, AF488-labelled (natural protein, human, UniProt P20339 1-212, looked up)
chain: MASRGATRPNGPNTGNKISQFKLVLLGESAVGKSSLVLRFVKGQFHEFQESTIGAAFLTQTVSLDDTTVKFEIWDTAGLERYHSLAPMYYRGAQAAIVVYDITNEESFARAKNWVKELQRQASPNIVIALSGNKADLANKRAVDFQEAQSYADDNSLLFMETSAKTSMNVNEIFMAIAKKLPKNEPQNPGANSARGRGVDLTEPTQPTRNQC
modifications: AlexaFluor 488 C5 maleimide label (43% labelling efficiency)
notes: RAB5A, human, residues 1-212, with Q79L, C19S and C63S; Loaded with GTP or GDP before gel filtration; also called RAB5A-AF488; AF488-RAB5A; source: E. coli OverExpress C41(DE3), purified (HisTrap, ULP1 cleavage, gel filtration)
[10]
  Kd: 3.21 µM and 4.24 µM
[11]
  Kd: 6.04 µM
[12]
  Kd: 6.27 µM
[13]
  Kd: 22.1 µM
